How the values were obtained:
[1] = target: T1, human IL-21R expressed on cells (human, UniProt Q9HBE5 20-538); experiment: cell-based or functional assay
[2] = target: T2, murine IL-21R expressed on cells (murine, UniProt Q9JHX3 20-529); experiment: cell-based or functional assay
[3] = target: T1, human IL-21R expressed on cells; experiment: cell ELISA on transfected CHO cells, 13 nM IgG
Protocol: (§1) A subset of binding proteins was tested for binding to rat, cynomolgus monkey, human IL-21R, or human IL-2R-γ common subunit expressed transiently on the surfaces of CHO-PA-Dukx cells. Cells were transfected 48 hr prior to the assay. On the day of the assay, cells were washed gently 5× in PBS containing 0.9 mM CaCl₂ and 0.45 mM MgCl₂ (PBS/CaMg) on an automated plate washer (Titertek, Huntsville, Ala.), and blocked for 1 hr at RT in PBS/CaMg/5% nonfat dry milk. Conditioned media from transiently expressed anti-IL-21R IgGs were serially diluted in blocking buffer and added to the cells in the blocked plates for 1 hr at RT. Cells were washed 5× with PBS/CaMg and then incubated with horseradish peroxidase-conjugated anti-human IgG for 1 hr at RT. Cells were then washed 10× in PBS/CaMg and all of the wash buffer was removed. Cells were incubated with 100 μl TMB until the color reaction reached saturation, stopped with 100 μl of 0.18 M H₂SO₄, and read at A450 on a Perkin Elmer ENVISION™ plate reader.

[4] = target: T3, rat IL-21R expressed on cells (rat); experiment: cell ELISA on transfected CHO cells, 13 nM IgG
T3 construct: whole, on cells; Transiently transfected CHO-PA-Dukx cells
Protocol: as §1

[5] = target: T4, cynomolgus monkey IL-21R expressed on CHO cells (cynomolgus monkey); experiment: cell ELISA on transfected CHO cells, 13 nM IgG
T4 construct: whole, on cells
Protocol: as §1

[6] = target: T1, human IL-21R expressed on cells; experiment: cell ELISA: CHO cells transiently expressing the receptor, antibody in conditioned medium, HRP anti-human IgG, A450
Protocol: FIG. 6 depicts the binding of 21 anti-IL-21R IgGs to CHO cells transiently expressing human IL-21R (FIGS. 6a-c), rat IL-21R (FIGS. 6d-f), cynomolgus monkey IL-21R (FIGS. 6g-i), and human gamma common chain (FIGS. 6j-l). CHO cells were transiently transfected with IL-21R or the control gamma common chain, and binding was detected with HRP-conjugated anti-human IgG in a cell-based ELISA.
as §1

[7] = target: T1, human IL-21R expressed on cells; experiment: cell-based or functional assay; remark: listed apart in the source
[8] = target: T2, murine IL-21R expressed on cells; experiment: cell-based or functional assay; remark: listed apart in the source
[9] = target: T1, human IL-21R expressed on cells; experiment: cell-based or functional assay; remark: listed apart in the source
[10] = target: T1, human IL-21R expressed on cells; experiment: cell-based or functional assay; remark: listed apart in the source
[11] = target: T2, murine IL-21R expressed on cells; experiment: cell-based or functional assay; remark: listed apart in the source
[12] = target: T5, human gamma common chain expressed on CHO cells (human, UniProt P31785 23-369); experiment: cell ELISA on transfected CHO cells, 13 nM IgG
T5 construct: whole, on cells; Control protein; also called human IL-2R-γ common subunit; human gamma (γ) common chain
T5 sequence (looked up): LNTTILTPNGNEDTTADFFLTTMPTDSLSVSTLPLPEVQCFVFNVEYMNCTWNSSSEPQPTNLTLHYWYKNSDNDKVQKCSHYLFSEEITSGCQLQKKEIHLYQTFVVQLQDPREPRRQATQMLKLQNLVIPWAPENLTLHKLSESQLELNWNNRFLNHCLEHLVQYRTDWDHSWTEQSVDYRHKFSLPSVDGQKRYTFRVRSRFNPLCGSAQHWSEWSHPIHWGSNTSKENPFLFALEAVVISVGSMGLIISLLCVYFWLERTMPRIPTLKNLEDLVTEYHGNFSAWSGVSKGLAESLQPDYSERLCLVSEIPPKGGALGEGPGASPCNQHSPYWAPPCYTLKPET
Protocol: as §1

human IL-2Rβ = target: T6, human IL-2Rβ (human, UniProt P14784 27-239); experiment: BIACORE: antibody captured on anti-human IgG, 50 nM analyte injected
T6 construct: Bought
T6 sequence (looked up): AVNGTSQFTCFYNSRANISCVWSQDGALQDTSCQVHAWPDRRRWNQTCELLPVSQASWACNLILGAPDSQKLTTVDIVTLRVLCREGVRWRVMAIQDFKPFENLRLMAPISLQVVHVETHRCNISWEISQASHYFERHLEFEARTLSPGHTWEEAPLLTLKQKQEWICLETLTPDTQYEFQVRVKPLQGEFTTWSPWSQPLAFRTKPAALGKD
Protocol: (§2) The specificity of binding of a subset of transiently expressed anti-IL-21R binding proteins (here antibodies) was tested on a BIACORE™ 2000 surface plasmon resonance instrument. Anti-human-IgG, anti-murine immunoglobulin antibodies, and murine IL-21R-H/F were immobilized onto a research-grade carboxymethyl-dextran chip (CM5) using standard amine coupling. The sensor chip surface was activated with EDC/NHS for 7 min at a flow rate of 20 μl/min. The first flow cell was used as reference surface to correct for bulk refractive index, matrix effects, and nonspecific binding. […] Remaining activated groups were blocked with 1.0 M ethanolamine (pH 8.0). The molecular weights of the anti-human IgG and the anti-murine IgG were both 150 kD, and the molecular weight of the IL-21R monomer was 27 kD.
(§3) Conditioned media containing anti-IL-21R antibodies and antibody controls (murine anti-human IL-2Rβ and murine anti-human IL-4R(R&D Systems, Minneapolis, Minn.); human anti-human IL-13 (Wyeth, Cambridge, Mass.)) were diluted in HBS/EP buffer supplemented with 0.2% bovine serum and injected onto all four flow cells of the BIACORE™ chip, capturing 500-700 (RU) of antibody on the species-appropriate capture antibody. Following a 5 sec washing period, 50 nM solutions of a positive control protein (murine IL-21R-H/F), two human proteins related to IL-21R (human IL-2Rβ and human sIL-4R(R&D Systems)), or an unrelated His/FLAG-tagged protein (human IL-13-H/F), were injected over the captured antibodies on the chip. The association and dissociation phases were monitored for 120 and 180 sec, respectively, followed by two 5 μl injections of glycine (pH 1.5) to regenerate a fully active capturing surface. All binding experiments were done at 25° C. in HBS/EP buffer. Blank and buffer effects were subtracted for each sensorgram using double referencing.

human soluble IL-4R = target: T7, human soluble IL-4R (human, UniProt P24394 26-231, limits assumed); experiment: as above
T7 construct: soluble; also called human sIL-4R
T7 sequence (P24394 26-231 limits assumed): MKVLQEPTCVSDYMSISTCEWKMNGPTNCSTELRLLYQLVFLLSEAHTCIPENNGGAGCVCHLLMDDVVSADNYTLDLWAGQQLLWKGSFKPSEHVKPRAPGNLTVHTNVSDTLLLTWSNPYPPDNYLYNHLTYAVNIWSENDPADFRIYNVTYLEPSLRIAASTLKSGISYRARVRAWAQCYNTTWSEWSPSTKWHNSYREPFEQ
Protocol: as §2, §3

human IL-13-His/FLAG = target: T8, human IL-13-His/FLAG (human, UniProt P35225 35-146, limits assumed); experiment: as above
T8 construct: Unrelated His/FLAG-tagged control; also called human IL-13-H/F
T8 sequence (P35225 35-146 limits assumed): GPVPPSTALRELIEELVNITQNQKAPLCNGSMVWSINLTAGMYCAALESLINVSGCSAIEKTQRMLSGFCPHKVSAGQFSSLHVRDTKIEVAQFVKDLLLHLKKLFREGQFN
Protocol: as §2, §3

[13] = target: T3, rat IL-21R expressed on cells; experiment: cell-based or functional assay

T2 sequence (Q9JHX3 20-529 limits assumed): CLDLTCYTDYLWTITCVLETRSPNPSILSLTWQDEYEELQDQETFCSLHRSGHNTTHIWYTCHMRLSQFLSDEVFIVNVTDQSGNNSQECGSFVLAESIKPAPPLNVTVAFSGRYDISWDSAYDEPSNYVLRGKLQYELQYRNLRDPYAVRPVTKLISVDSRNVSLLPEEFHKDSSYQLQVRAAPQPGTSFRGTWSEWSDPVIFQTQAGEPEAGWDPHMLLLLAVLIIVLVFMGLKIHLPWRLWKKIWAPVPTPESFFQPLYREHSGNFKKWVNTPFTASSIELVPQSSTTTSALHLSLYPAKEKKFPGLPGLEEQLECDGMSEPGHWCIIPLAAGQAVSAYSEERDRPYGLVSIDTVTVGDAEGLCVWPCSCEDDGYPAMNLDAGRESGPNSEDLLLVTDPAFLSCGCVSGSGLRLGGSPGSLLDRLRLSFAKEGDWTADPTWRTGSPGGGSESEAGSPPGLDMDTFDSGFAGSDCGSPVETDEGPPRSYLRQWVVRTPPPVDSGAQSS
T1 sequence (Q9HBE5 20-538 limits assumed): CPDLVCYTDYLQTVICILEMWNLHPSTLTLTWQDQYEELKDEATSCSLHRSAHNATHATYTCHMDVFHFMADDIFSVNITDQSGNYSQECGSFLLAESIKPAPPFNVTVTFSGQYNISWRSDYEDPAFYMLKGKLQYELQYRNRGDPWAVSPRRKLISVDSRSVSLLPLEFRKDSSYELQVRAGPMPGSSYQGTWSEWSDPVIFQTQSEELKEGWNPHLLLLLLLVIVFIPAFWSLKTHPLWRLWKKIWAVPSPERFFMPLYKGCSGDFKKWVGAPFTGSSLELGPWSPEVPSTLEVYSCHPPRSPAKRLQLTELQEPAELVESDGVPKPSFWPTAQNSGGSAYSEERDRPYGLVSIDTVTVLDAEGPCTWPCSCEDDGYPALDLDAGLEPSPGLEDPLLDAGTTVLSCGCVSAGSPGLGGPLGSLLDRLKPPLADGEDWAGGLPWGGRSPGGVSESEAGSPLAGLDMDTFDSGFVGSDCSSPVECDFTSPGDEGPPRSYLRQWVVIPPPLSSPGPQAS

Binder | Human IL-21R-BaF3 Proliferation IC50 [1] | Human IL-21R-TF1 Proliferation IC50 [1] | Murine IL-21R-BaF3 Proliferation IC50 [2] | A450 at 13 nM Ab in cell ELISA [3] | A450 at 13 nM Ab in cell ELISA [4] | A450 at 13 nM Ab in cell ELISA [5] | EC50 (read off the curve) [6] | Human IL-21R-BaF3 Neutralization IC50 [7] | Human IL-21R-TF1 Neutralization IC50 [7] | Murine IL-21R-BaF3 Neutralization IC50 [8] | Neutralization of B cell proliferation IC50 [9] | Neutralization of T cell Proliferation IC50 (nM), human primary CD4+ T cells [10] | Neutralization of T cell Proliferation IC50 (nM), murine primary CD8+ T cells [11] | A450 at 13 nM Ab in cell ELISA [12] | binding result (human IL-2Rβ) | binding result (human soluble IL-4R) | binding result (human IL-13-His/FLAG) | IC50 (nM) experiment 1, rat T cell proliferation [13] | IC50 (nM) experiment 2, rat T cell proliferation [13]
AbD (antibody, human IgG1, V domains shown, Full-length human IgG1 / human lambda, transient, conditioned medium; Framework limits derived; also called VHP/VL13) VH: QVQLQESGPGLVKPSETLSLTCAVSGYSISSGYYWGWIRQPPGKGLEWIGSISHTGNTYYNPPLKSRVTISVDTSKNQFSLKLSSVTAADTAVYYCARGGGISRPEYWGQGTLVTVSS VL: SSELTQDPAVSVALGQTVRITCQGDSLRTYYASWYQQKPGQAPVLVIYGKHKRPSGIPDRFSGSSSGNTASLTITGAQAEDEADYYCVTRNRYGNPHVLFGGGTQLTVL | 910 pM | 2670 pM | 10 pM | 1.25 A450 | 0.874 A450 | 1.38 A450 | ~1000 pM | – | – | – | – | – | – | – | – | – | – | – | –
AbR (antibody, human IgG1, V domains shown, Purified form: human IgG1 double-mutant (L234A, G237A); Framework limits derived; also called VH3/VL18; VH3DM/VL18) VH: QVQLQESGPGLVKPSETLSLTCAVSGYSISSGYYWGWIRQPPGKGLEWIGSISHTGNTYYNPPLKSRVTISVDTSKNQFSLKLSSVTAADTAVYYCARFMGFGRPEYWGQGTLVTVSS VL: SSELTQDPAVSVALGQTVRITCQGDSLRTYYASWYQQKPGQAPVLVIYGKHKRPSGIPDRFSGSSSGNTASLTITGAQAEDEADYYCVTRSVKGNPHVLFGGGTQLTVL | 870 pM | 3940 pM | 302 pM | 1.33 A450 | 1.11 A450 | 1.35 A450 | – | 560 pM | 1630 pM | 340 pM | 220 pM | 0.04 nM | 0.13 nM | 0.109 A450 | no binding (tested: 50 nM) | no binding (tested: 50 nM) | no binding (tested: 50 nM) | – | –
AbS (antibody, human IgG1, V domains shown, Human IgG1 triple-mutant (L234A, L235A, G237A); Framework limits derived; also called VHP/VL6; VHPTM/VL6) VH: QVQLQESGPGLVKPSETLSLTCAVSGYSISSGYYWGWIRQPPGKGLEWIGSISHTGNTYYNPPLKSRVTISVDTSKNQFSLKLSSVTAADTAVYYCARGGGISRPEYWGQGTLVTVSS VL: SSELTQDPAVSVALGQTVRITCQGDSLRTYYASWYQQKPGQAPVLVIYGKHKRPSGIPDRFSGSSSGNTASLTITGAQAEDEADYYCMSRSIWGNPHVLFGGGTQLTVL | 1530 pM | 5000 pM | 40 pM | 1.02 A450 | 1.17 A450 | 1.22 A450 | – | 680 pM | 6670 pM | 40 pM | 440 pM | 0.06 nM | 0.02 nM | 0.118 A450 | no binding (tested: 50 nM) | no binding (tested: 50 nM) | no binding (tested: 50 nM) | 36 nM | 27.1 nM
AbT (antibody, human IgG1, V domains shown, Human IgG1 triple-mutant (L234A, L235A, G237A); Framework limits derived; also called VHP/VL9; VHPTM/VL9) VH: QVQLQESGPGLVKPSETLSLTCAVSGYSISSGYYWGWIRQPPGKGLEWIGSISHTGNTYYNPPLKSRVTISVDTSKNQFSLKLSSVTAADTAVYYCARGGGISRPEYWGQGTLVTVSS VL: SSELTQDPAVSVALGQTVRITCQGDSLRTYYASWYQQKPGQAPVLVIYGKHKRPSGIPDRFSGSSSGNTASLTITGAQAEDEADYYCVARSNKGNPHVLFGGGTQLTVL | 670 pM | 3260 pM | 93 pM | 1.08 A450 | 0.994 A450 | 1.22 A450 | – | 300 pM | 2320 pM | 50 pM | 140 pM | 0.03 nM | 0.61 nM | 0.102 A450 | no binding (tested: 50 nM) | no binding (tested: 50 nM) | no binding (tested: 50 nM) | – | –
parental 18A5 antibody (antibody, V domains shown) VH: QVQLQESGPGLVKTSETLSLTCAVSGYSISSGYYWGWIRQPPGKGLEWIGSISHTGNTYYNPPLKSRVTISVDTSKNQFSLKLSSVTAADTAVYYCARGGGISRPEYWGKGTLVTVSS VL: SSELTQDPPVSVALGQTVTLTCQGDSLRTYYASWYQQKSGQAPILLLYGKHKRPSGIPDRFSGSTSGDTASLTITGAQAEDEADYYCNSRDSSGNPHVLFGGGTQLTVL | – | – | – | – | – | – | – | 1710 pM | 14000 pM | 177000 pM | 1860 pM | 1.42 nM | > 85 nM | – | – | – | – | – | –

— US20090298167A1 (Pfizer, published 2009)
